{"source": "the DeepSol protein solubility set", "data": [{"experiment": "soluble on expression in E. coli; label from the status in PepcDB or PDB records", "values": [{"sequence": "MSLAQRLATGKAGSIGLVMPTAPGHQSDVHFGEFLAGLGEEAVRHDFHFVIMPSDPDDEVAALRRLAISGNVDALFIAYMRGHDPRLAMLKSLSMPYVVHGRSFGAELDYPYLDIDNEGAFYDATRLLLQLGHTRFALMNGPMHLDFAIRRRNGVISALAERGLTLEEDCMSHALMTDEQGLLAMERFLQLPERPTAILCSSTVMALGAIRAVNQAGLRLGEDVSLIAHDDVLPLLKPENFSVPLTTTRSSLRAAGVRIAQRLIGTVKQAGPFPEQELWKTELIVRASTGPAPQEGHHHHHH", "soluble on expression in E. coli": "soluble"}, {"sequence": "MIDKKTYNEIGVHIPSILLPKEGIDMQKWSVVACDQYTSEPEYWEEVEKKVGDNPSTLHLIFPEIYLEHGNADERIKRINNEMKRYINEGILVSQKPCMLLVDRSTPHTKSRKGLILAVDLEKYDYSAGSQTLIRATEGTVIERLPPRVKIRENAILELPHVMLLIDDPDKTVIEPLAGKLDSFEKVYDFELMMNGGHIRGYRIDDGETLKGILKAIEALADPEVFKSKYKVGDDKGVLLFAVGDGNHSLASAKVHWENVKKSLSEAEVEDHPARFALVEVVNVHDDGIVFEPIHRVLFNIEPESVLNALQDFFGSSCCSLEKFDSLESVNKRLSELKREEAVHSFGFVTDRSFGVFTVQNLKHNLEVATLQGFLDYYLGKQKEAKVDYIHGEDVVTKLGSKPGNIGFYLPSMEKHDLFKTVILDGVLPRKTFSMGEAEEKRFYLECRKIVKD", "soluble on expression in E. coli": "soluble"}, {"sequence": "MSLNRAFRREQYARMVALSEPLIADYLGVRLPEPVSRIFVFDRREWLEANIVSFSQLFRPIEEMYEKNGGGRGALGVLMNDVSSKLLGVQIGGLLGYLAQRVLGQYDLSLLSAEATGGSLYFVEPNIARVQQQLGLSDEDFRLWITLHEMTHAFEFEAYPWVRTYFRELLEQNFALVSGQMLSSGNSLVDMLMRLLQGEGHHHHHH", "soluble on expression in E. coli": "not soluble"}, {"sequence": "TNCVTISQREILKGVEGVTWFEVLLEKTSCITIAAQNRPSIDLWLDDVKQSSVMASKEFCMKVEVSETQIAARCPTQGDATLPMEGKDDYVCKKTFSDRGWGNGCALFGKGSIVGCAKVACNTANVMKTHIYEQQAVQYVVGIEVHRGEVIKANVSDKVIKASFSAEAEKHTVEIPDYGSLDFTCRVVASADLSNIRLLEVDGHYFNVHEDWLDDLPLPWRINAGPWRGMDKLVNFREPYAVKMVIMGYGDQRPAVLGALDKAEEIKKVGDNYHLNGGHVSCKVSVAKLKLKGMTYVVCGGKFAWAKKPIATNHDTVAMEVTYTGNDTPCRVTVKNVKENSDDQGTLITTNPFVESNGATIFLELEPVYGLSTIKVGDITYQWNQQGSVIGKALEHHHHHH", "soluble on expression in E. coli": "not soluble"}, {"sequence": "MASKVYDPEQRKRMITGPQWWARCKQMNVLDSFINYYDSEKHAENAVIFLHGNATSSYLWRHVVPHIEPVARCIIPDLIGMGKSGKSGNGSYRLLDHYKYLTAWFELLNLPKKIIFVGHDWGAALAFHYAYEHQDRIKAIVHMESVVDVIESWDEWPDIEEDIALIKSEEGEKMVLENNFFVETVLPSKIMRKLEPEEFAAYLEPFKEKGEVRRPTLSWPREIPLVKGGKPDVVQIVRNYNAYLRASDDLPKLFIESDPGFFSNAIVEGAKKFPNTEFVKVKGLHFLQEDAPDEMGKYIKSFVERVLKNEQVDHHHHHH", "soluble on expression in E. coli": "soluble"}, {"sequence": "MADRQLLHTAHIPVRWGDMDSYGHVNNTLYFQYLEEARVAWFETLGIDLEGAAEGPVVLQSLHTYLKPVVHPATVVVELYAGRLGTSSLVLEHRLHTLEDPQGTYGEGHCKLVWVRHAENRSTPVPDSIRAAIA", "soluble on expression in E. coli": "soluble"}, {"sequence": "MQRTLNVGVILCESFISNAQNPVNSYIKIYENVRMFEFAIKLLQESRINFQKILLYVLEEQIPLVEKVVAKYENCWVFRSKHNEVEDIYEAKGFIEDKYKIGLKSSKNQASSYYDNCCFVVLEACRPLTSKKVVKNVYEKAMIDGAAVAVLPFERQLVCGDNTKAVRQLKDKGNMNYWRQSSTWELQFPQAYTLNKLNQYHKNLFMKARNMLDLMNISAKNPLSIVDGSAYSFRVVTSLDFEILLGILRNG", "soluble on expression in E. coli": "not soluble"}, {"sequence": "MGSDKIHHHHHHMRNQSKMPLVERLDAHAKSCPISLHVPGHKSGAIYPDAWQKFLKWDVTEITGMDDLHHPEDVILEAEELLAECYGSKKSYFLVNGTSGGSLAVIMATLKHGEKVLVPRDAHKSILHGIELAGGEPIFLTPATNKEVGVASGVTTELLEETLHNHPDIKLCIFTYPSYYGTTFNLHKCIQIAHDFGAVVFVDEAHGAHFLTSSEFPKSAVELGADVVVQSAHKTLPALTMGSYLHVVNDLPIFEKLPYYLQVFQTSSPSYLIMASLDAARKYAATYTAADVEAFWKMRARWIKWLTKNKFDVILPDDPLKIIVRKTGYTGYELQAIFEESSYFPELADESQVLLILPLIKKGIDFTPISRIHSPVKKEIAKEPYEMSAPFASGLALTYEEMHARATEFVLLDEATTRVSAETISLYPPGIPAIIRGESITEKHIRELKNIRTRHYQGGEKLAENYIRVFR", "soluble on expression in E. coli": "not soluble"}, {"sequence": "MAHHHHHHMLKHKYNDSCVQELFYKNNIKLIAIDIDGTLADDTGKISDENLKAIEVCKKGGIEIILASGRLHSYAMKMFTNEQIEKYKIEKLDGVYSHGAYIHMKGYDYVYRKFSYKDLELILFSLGSYNILRNAVFLTVDSAYVINDDIKLIEEYIYTPESEGIISDIEYVKIIDTNYKPILINKIKDIFNIGDIVSIEIYDKLYPNQDIYSDLFKVLFYELQPHYKIYIPSSNNKIVLSPINTAKVHTTQLYAQFYRINLNNILSIGNDDNDIELLSSTGFSVAVKNSTPRALQVARCVSTKTNNENAVANIIYRVLSGRRS", "soluble on expression in E. coli": "not soluble"}, {"sequence": "QPKPEEKLTNNIILKKLQIALNLKADEVLDLLKLVNFRLSKHELSAFFRKPDHKHYRVCKDQVLRNFLQAVQQNLRG", "soluble on expression in E. coli": "not soluble"}, {"sequence": "MNLHQTVEHEAAAAFAAAGIAGSPVVLQPTKNAEHGDFQINGVMGAAKKAKQNPRELAQKVADALAGNAVIESAEVAGPGFINLRLRHEFLAQNIHAALNDARF", "soluble on expression in E. coli": "not soluble"}, {"sequence": "EVVRLGDVLELCQYGLSVPLKDKGKYPVIRMDEIVNGYVVTDIAKYADLDEETFKNFKLEKGDVLFNRTNSLELVGRTGIFLLDGYYVFASYLIRLRPKHEILHPHFLTFYLIFSQSRLKQLATVAVHQANINATNLKKFKIPLPPLPEQQKIAEILSTV", "soluble on expression in E. coli": "soluble"}, {"sequence": "MPITIGNGFLKSEILTNSPRNTKEAWWKVLWEKIKDFFFSTGKAKADRCLHEMLFAERAPTRERLTEIFFELKELACASQRDRFQVHNPHENDATIILRIMDQNEENELLRITQNTDTFSCEVMGNLYFLMKDRPDILKSHPQMTAMIKRRYSEIVDYPLPSTLCLNPAGAPILSVPLDNIEGYLYTELRKGHLDGWKAQEKATYLAAKIQSGIEKTTRILHHANISESTQQNAFLETMAMCGLKQLEIPPPHTHIPIEKMVKEVLLADKTFQAFLVTDPSTSQSMLAEIVEAISDQVFHAIFRIDPQAIQKMAEEQLTTLHVRSEQQSGCLCCFLLEHHHHHH", "soluble on expression in E. coli": "soluble"}, {"sequence": "SLVYDSNNNLIADLGAEKRESISSDSIPMKLVNAVTSIEDHRFFKHRGVDIYRIIGAAWSNLLHKSTQGGSTLDQQLIKLAYFSTKESDQTLKRKAQEVWLSLQMEKKYTKEEILTFYVNKVYMGNGNYGMRTAAKSYYGKDLKDLSIAQLATLAGIPQAPTQYDPYAQP", "soluble on expression in E. coli": "not soluble"}, {"sequence": "MGSDKIHHHHHHMLNPLWLKTFITLVETGHFTQTASKLFMTQPGVSQHLNKLEQACGHQLLIRSRSGIELTEAGERLYQYALSQARAEAALLDSLDEDNPFSGSCRLACSGSLAQLLYPKLLALQAAHPGLKVHMEAAPNARIINEVQQGDKDLGIITAPPPRGLFSDTDIGTQALCLVLPASSEATTDDASLPSINELKVLGLISHPDAAHYLSLFFAHSGSPGYQNAFAEDFPISSYINQLGQILLPVSMGLGFTVLPLSVVEQFSERDKLRVCVGLERVFEPLYLIHKRQRQLPARFDTIRSLIQSVLTSTTDSPQ", "soluble on expression in E. coli": "not soluble"}, {"sequence": "MSLDGKPTIIIKYGKIDEEAMKSQRYNFDDLMVQLRENSIDRVADVSFAILEPSGKLTIVKKENSGEHRQLEMPLIIDGFIQTENLSRISKDRKWLLESLQKHGYTNPSDISFCSFTDGEIYIDEKDGHRTKGIITITTDPNSSSVDKLAAALEHHHHHH", "soluble on expression in E. coli": "soluble"}, {"sequence": "MGSDKIHHHHHHMKFSIDRDALLKPLQLVSGAVERRHNLPILANLLVEVSGHSLKMTGTDLEVELVGEATVHGDVQEGRTTVPAKKLLDIVKSLPEQTEIKVEQQENKWLLRCGRSRFSLATLPAEEYPNVEAFRPDIEFTLKQGTLKSLIDSTQFSMANQDVRYYLNGLLIETEGNVLRAVATDGHRLALSHRMIEASLPEKQVIVPRKGVVELSRLLDAEDQDITLAIGESAIRATTATAVFTSKLVDGRFPDYRRVLPKGGDKIVIASRNQLKQALLRASILSNEKFRGVRILLEDGLLKITANNPEQEEAEEIIDVDYNSTTLEIGFNVSYLLDVLNSLRSDEVRVTLIDSNSSALIENHVEEDSMYVVMPMRL", "soluble on expression in E. coli": "not soluble"}, {"sequence": "MMSVPVMADEGTKWDWPLQKGDGVVNVLDDDDHFEVGLEAHNFLPKEIEVKNIGELLEIHMEHNVKKDSFGDVSRNITRCYKLPKNVDMKTIKSNLDSHGILHIEARKMH", "soluble on expression in E. coli": "not soluble"}, {"sequence": "PKHGKRYRALLEKVDPNKIYTIDEAAHLVKELATAKFDETVEVHAKLGIDPRRSDQNVRGTVSLPHGGRIEFRNDKTGAIHAPVGKASFPPEKLADNIRAFIRALEAHKPEGAKGTFLRSVYVTTTMGPSVRINPHS", "soluble on expression in E. coli": "soluble"}, {"sequence": "MSITHLMRQQVEELFKRFLEKTGLSEEATVYAVFIPKEEEVDEESVDVFEQRVNPKDAESVENFVSRLTKVALENDVKELKLYALVLDRDGETLIIAREENPEADEVIKELIERMKEEV", "soluble on expression in E. coli": "not soluble"}, {"sequence": "ARGSHMEEMIRSLQQRPEPTPEEWDLIHIATEAHRSTNAQGSHWKQRRKFLPDDIGQSPIVSMPDGDKVDLEAFSEFTKIITPAITRVVDFAKKLPMFSELPCEDQIILLKGCCMEIMSLRAAVRYDPESDTLTLSGEMAVKREQLKNGGLGVVSDAIFELGKSLSAFNLDDTEVALLQAVLLMSTDRSGLLCVDKIEKSQEAYLLAFEHYVNHRKHNIPHFWPKLLMKVTDLRMIGACHASRFLHCKVECPTELFPPLFLEVFEDQEV", "soluble on expression in E. coli": "soluble"}, {"sequence": "MGSDKIHHHHHHMANSNMQATDAVAQDTASASGEFDALLNQAFRPKTTQAAKAVEAAVQTLAQQALANTITVSDDAYKSISAIIAQIDFKLTEQIKLILQHPDWQKLESSWRGMEHLVYNTETDEKLKIRFMNLSKDELRRNMKRYKGIAWDQSPMFKKLYEAEYGQLGGEPYGCIIADYYFDHTPPDVDLLGSIAKVAASAHAPFIAGASPSVLQMDSWQELANPRDLTKIVTQNLEYAPWNSLRASEDSRYIGLTMPRFLARLPYGAKTNPVDEFDFEEDADGSDHTKYVWSNAAYAMGVNINRSFKHYGWCTLIRGVESGGAVENLPCHTFPTDDGGVDMKCPTEIAISDRREAELAKNGFIPLIHRKNSDYAAFIGAQSLQKPQEYYDPDATANANLSARLPYLFACSRFAHFLKCIVRDKIGSFKEREDMQRWLNEWIMNYVDADPVNSSQETKARRPLAAAEVVVEEVEGNPGYYDAKFFLRPHFQLEGLTGSLRLVTKLPSVKQGNA", "soluble on expression in E. coli": "not soluble"}]}]}
